T1: Lsb3, P43603
T1 sequence (P43603 385-451, looked up): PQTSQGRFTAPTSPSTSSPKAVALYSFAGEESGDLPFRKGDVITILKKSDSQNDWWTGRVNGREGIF

T2: Hse1, P38753
T2 sequence (P38753 208-285, looked up): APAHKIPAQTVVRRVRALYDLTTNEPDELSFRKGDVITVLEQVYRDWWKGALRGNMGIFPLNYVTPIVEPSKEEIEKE

T3: Boi1, P38041
T3 sequence (P38041 1-86, looked up): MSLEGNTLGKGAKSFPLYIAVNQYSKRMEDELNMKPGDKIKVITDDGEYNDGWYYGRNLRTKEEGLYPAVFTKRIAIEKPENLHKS

T4: Cdc25, P04821
T4 sequence (P04821 50-136, looked up): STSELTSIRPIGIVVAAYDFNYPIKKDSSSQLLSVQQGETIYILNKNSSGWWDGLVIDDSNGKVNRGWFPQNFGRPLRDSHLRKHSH

T5: Boi2, P39969
T5 sequence (P39969 32-116, looked up): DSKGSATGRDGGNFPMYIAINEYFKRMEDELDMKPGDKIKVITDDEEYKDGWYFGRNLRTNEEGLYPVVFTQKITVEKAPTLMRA

T6: Bbc1, P47068
T6 sequence (P47068 1-78, looked up): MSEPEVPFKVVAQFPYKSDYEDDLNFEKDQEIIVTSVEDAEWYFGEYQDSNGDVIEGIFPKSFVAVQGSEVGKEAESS

T7: Abp1, P15891
T7 sequence (P15891 535-592, looked up): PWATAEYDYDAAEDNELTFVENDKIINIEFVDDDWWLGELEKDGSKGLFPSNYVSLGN

T8: Lsb1, P53281
T8 sequence (P53281 45-122, looked up): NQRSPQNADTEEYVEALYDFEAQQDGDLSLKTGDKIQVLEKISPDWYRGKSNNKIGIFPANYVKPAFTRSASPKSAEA

T9: Myo5, Q04439
T9 sequence (Q04439 1072-1160, looked up): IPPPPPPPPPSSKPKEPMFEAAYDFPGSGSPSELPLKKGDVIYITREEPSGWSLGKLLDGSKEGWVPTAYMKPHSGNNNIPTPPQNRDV

T10: Nbp2, Q12163
T10 sequence (Q12163 103-180, looked up): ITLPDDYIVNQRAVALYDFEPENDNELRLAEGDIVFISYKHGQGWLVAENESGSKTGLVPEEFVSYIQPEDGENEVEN

T11: Hof1, Q05080
T11 sequence (Q05080 590-669, looked up): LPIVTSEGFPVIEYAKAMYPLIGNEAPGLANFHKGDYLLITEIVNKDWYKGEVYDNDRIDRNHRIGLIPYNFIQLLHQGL

T12: Bud14, P27637
T12 sequence (P27637 247-328, looked up): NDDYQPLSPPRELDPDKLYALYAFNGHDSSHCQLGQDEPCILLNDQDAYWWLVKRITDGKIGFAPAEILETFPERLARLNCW

T13: Pin3, Q06449
T13 sequence (Q06449 53-122, looked up): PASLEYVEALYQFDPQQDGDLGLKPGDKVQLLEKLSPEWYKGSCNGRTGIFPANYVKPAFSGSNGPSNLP

T14: Fus1, P11710
T14 sequence (P11710 432-512, looked up): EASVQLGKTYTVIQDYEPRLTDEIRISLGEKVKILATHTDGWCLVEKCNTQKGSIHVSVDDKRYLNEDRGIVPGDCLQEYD

T15: Bzz1-2, P38822
T15 sequence (P38822 568-633, looked up): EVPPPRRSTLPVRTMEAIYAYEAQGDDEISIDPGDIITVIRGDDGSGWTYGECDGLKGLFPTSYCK

T16: Bzz1-1, P38822
T16 sequence (P38822 478-572, looked up): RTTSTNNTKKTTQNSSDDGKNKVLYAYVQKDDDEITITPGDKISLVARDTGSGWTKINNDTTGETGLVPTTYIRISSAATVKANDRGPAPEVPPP

T17: Lsb4, P32793
T17 sequence (P32793 402-468, looked up): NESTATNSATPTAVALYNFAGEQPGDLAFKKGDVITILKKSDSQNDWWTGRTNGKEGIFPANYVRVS

T18: Sla1-2, P32790
T18 sequence (P32790 60-140, looked up): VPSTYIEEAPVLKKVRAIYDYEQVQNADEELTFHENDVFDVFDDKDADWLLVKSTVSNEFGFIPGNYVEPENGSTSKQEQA

T19: Sla1-3, P32790
T19 sequence (P32790 344-424, looked up): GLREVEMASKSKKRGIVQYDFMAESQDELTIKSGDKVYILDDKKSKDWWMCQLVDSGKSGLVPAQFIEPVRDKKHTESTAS

T20: Pex13, P80667
T20 sequence (P80667 295-386, looked up): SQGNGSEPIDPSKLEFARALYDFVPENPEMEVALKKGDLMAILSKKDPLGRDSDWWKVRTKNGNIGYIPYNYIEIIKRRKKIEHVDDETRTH

T21: Cyk3, Q07533
T21 sequence (Q07533 1-83, looked up): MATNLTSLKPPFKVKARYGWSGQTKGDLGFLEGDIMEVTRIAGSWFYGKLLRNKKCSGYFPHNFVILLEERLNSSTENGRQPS


These binders were tested against T1, Lsb3, P43603 (assay: SPOT array). Details: median of control spots 406.

Row | SPOT intensity | Binder
1 | 46 | TEVPIPRRPPPPQAA
2 | 0 | AAAPKHAPPPVPNET
3 | 0 | APKHAPPPVPNETDN

What follows are binders tested against T2, Hse1, P38753 (assay: SPOT array). Details: median of control spots 1727.

Row | SPOT intensity | Binder
4 | 0 | TEVPIPRRPPPPQAA
5 | 13 | AAAPKHAPPPVPNET
6 | 3 | APKHAPPPVPNETDN

These binders were tested against Myo3, P36006 (assay: SPOT array). Details: median of control spots 468.

Row | SPOT intensity | Binder
7 | 367 | TEVPIPRRPPPPQAA
8 | 557 | AAAPKHAPPPVPNET
9 | 497 | APKHAPPPVPNETDN

What follows are binders tested against Bem1-1, P29366 (assay: SPOT array). Details: median of control spots 4282.
Sequence of Bem1-1, P29366 (P29366 55-141): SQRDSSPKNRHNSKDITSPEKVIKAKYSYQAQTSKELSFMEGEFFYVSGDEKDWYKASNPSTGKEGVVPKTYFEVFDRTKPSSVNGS

Row | SPOT intensity | Binder
10 | 3 | TEVPIPRRPPPPQAA
11 | 0 | AAAPKHAPPPVPNET
12 | 0 | APKHAPPPVPNETDN

These binders were tested against T3, Boi1, P38041 (assay: SPOT array). Details: median of control spots 1162.

Row | SPOT intensity | Binder
13 | 0 | TEVPIPRRPPPPQAA
14 | 0 | AAAPKHAPPPVPNET
15 | 0 | APKHAPPPVPNETDN

What follows are binders tested against T4, Cdc25, P04821 (assay: SPOT array). Details: median of control spots 969.

Row | SPOT intensity | Binder
16 | 0 | TEVPIPRRPPPPQAA
17 | 0 | AAAPKHAPPPVPNET
18 | 0 | APKHAPPPVPNETDN

What follows are binders tested against T5, Boi2, P39969 (assay: SPOT array). Details: median of control spots 1161.

Row | SPOT intensity | Binder
19 | 0 | TEVPIPRRPPPPQAA
20 | 0 | AAAPKHAPPPVPNET
21 | 0 | APKHAPPPVPNETDN

These binders were tested against Sho1, P40073 (assay: SPOT array). Details: median of control spots 1148.
Sequence of Sho1, P40073 (P40073 287-367): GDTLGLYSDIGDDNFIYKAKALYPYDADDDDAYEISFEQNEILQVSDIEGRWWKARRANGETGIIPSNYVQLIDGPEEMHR

Row | SPOT intensity | Binder
22 | 0 | TEVPIPRRPPPPQAA
23 | 0 | AAAPKHAPPPVPNET
24 | 0 | APKHAPPPVPNETDN

These binders were tested against T6, Bbc1, P47068 (assay: SPOT array). Details: median of control spots 796.

Row | SPOT intensity | Binder
25 | 3 | TEVPIPRRPPPPQAA
26 | 0 | AAAPKHAPPPVPNET
27 | 0 | APKHAPPPVPNETDN

These binders were tested against T7, Abp1, P15891 (assay: SPOT array). Details: median of control spots 935.

Row | SPOT intensity | Binder
28 | 0 | TEVPIPRRPPPPQAA
29 | 0 | AAAPKHAPPPVPNET
30 | 0 | APKHAPPPVPNETDN

These binders were tested against T8, Lsb1, P53281 (assay: SPOT array). Details: median of control spots 388.

Row | SPOT intensity | Binder
31 | 0 | TEVPIPRRPPPPQAA
32 | 0 | AAAPKHAPPPVPNET
33 | 0 | APKHAPPPVPNETDN

These binders were tested against Rvs167, P39743 (assay: SPOT array). Details: median of control spots 2707.
Sequence of Rvs167, P39743 (P39743 419-482): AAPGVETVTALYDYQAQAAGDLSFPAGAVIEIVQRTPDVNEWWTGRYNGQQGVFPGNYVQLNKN

Row | SPOT intensity | Binder
34 | 0 | TEVPIPRRPPPPQAA
35 | 0 | AAAPKHAPPPVPNET
36 | 0 | APKHAPPPVPNETDN

Each binder was assayed against T9, Myo5, Q04439 (assay: SPOT array). Details: median of control spots 471.

Row | SPOT intensity | Binder
37 | 141 | TEVPIPRRPPPPQAA
38 | 376 | AAAPKHAPPPVPNET
39 | 239 | APKHAPPPVPNETDN

What follows are binders tested against T10, Nbp2, Q12163 (assay: SPOT array). Details: median of control spots 357.

Row | SPOT intensity | Binder
40 | 0 | TEVPIPRRPPPPQAA
41 | 0 | AAAPKHAPPPVPNET
42 | 0 | APKHAPPPVPNETDN

Each binder was assayed against T11, Hof1, Q05080 (assay: SPOT array). Details: median of control spots 4086.

Row | SPOT intensity | Binder
43 | 0 | TEVPIPRRPPPPQAA
44 | 0 | AAAPKHAPPPVPNET
45 | 0 | APKHAPPPVPNETDN

Each binder was assayed against T12, Bud14, P27637 (assay: SPOT array). Details: median of control spots 956.

Row | SPOT intensity | Binder
46 | 0 | TEVPIPRRPPPPQAA
47 | 0 | AAAPKHAPPPVPNET
48 | 0 | APKHAPPPVPNETDN

What follows are binders tested against T13, Pin3, Q06449 (assay: SPOT array). Details: median of control spots 2171.

Row | SPOT intensity | Binder
49 | 0 | TEVPIPRRPPPPQAA
50 | 0 | AAAPKHAPPPVPNET
51 | 0 | APKHAPPPVPNETDN

Each binder was assayed against T14, Fus1, P11710 (assay: SPOT array). Details: median of control spots 1200.

Row | SPOT intensity | Binder
52 | 0 | TEVPIPRRPPPPQAA
53 | 0 | AAAPKHAPPPVPNET
54 | 0 | APKHAPPPVPNETDN

What follows are binders tested against T15, Bzz1-2, P38822 (assay: SPOT array). Details: median of control spots 4538.

Row | SPOT intensity | Binder
55 | 0 | TEVPIPRRPPPPQAA
56 | 0 | AAAPKHAPPPVPNET
57 | 0 | APKHAPPPVPNETDN

Each binder was assayed against T16, Bzz1-1, P38822 (assay: SPOT array). Details: median of control spots 4446.

Row | SPOT intensity | Binder
58 | 12 | TEVPIPRRPPPPQAA
59 | 0 | AAAPKHAPPPVPNET
60 | 0 | APKHAPPPVPNETDN

These binders were tested against Bem1-2, P29366 (assay: SPOT array). Details: median of control spots 4347.
Sequence of Bem1-2, P29366 (P29366 139-227): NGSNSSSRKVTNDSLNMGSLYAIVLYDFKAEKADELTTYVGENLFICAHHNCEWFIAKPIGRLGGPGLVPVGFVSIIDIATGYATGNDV

Row | SPOT intensity | Binder
61 | 0 | TEVPIPRRPPPPQAA
62 | 84 | AAAPKHAPPPVPNET
63 | 0 | APKHAPPPVPNETDN

These binders were tested against T17, Lsb4, P32793 (assay: SPOT array). Details: median of control spots 397.

Row | SPOT intensity | Binder
64 | 108 | TEVPIPRRPPPPQAA
65 | 0 | AAAPKHAPPPVPNET
66 | 0 | APKHAPPPVPNETDN

What follows are binders tested against T18, Sla1-2, P32790 (assay: SPOT array). Details: median of control spots 712.

Row | SPOT intensity | Binder
67 | 0 | TEVPIPRRPPPPQAA
68 | 0 | AAAPKHAPPPVPNET
69 | 0 | APKHAPPPVPNETDN

Each binder was assayed against T19, Sla1-3, P32790 (assay: SPOT array). Details: median of control spots 5475.

Row | SPOT intensity | Binder
70 | 0 | TEVPIPRRPPPPQAA
71 | 0 | AAAPKHAPPPVPNET
72 | 0 | APKHAPPPVPNETDN

Each binder was assayed against GST (assay: SPOT array). Details: median of control spots 978.

Row | SPOT intensity | Binder
73 | 3 | TEVPIPRRPPPPQAA
74 | 0 | AAAPKHAPPPVPNET
75 | 0 | APKHAPPPVPNETDN

These binders were tested against T20, Pex13, P80667 (assay: SPOT array). Details: median of control spots 1341.

Row | SPOT intensity | Binder
76 | 0 | TEVPIPRRPPPPQAA
77 | 0 | AAAPKHAPPPVPNET
78 | 0 | APKHAPPPVPNETDN

What follows are binders tested against T21, Cyk3, Q07533 (assay: SPOT array). Details: median of control spots 1451.

Row | SPOT intensity | Binder
79 | 0 | TEVPIPRRPPPPQAA
80 | 0 | AAAPKHAPPPVPNET
81 | 0 | APKHAPPPVPNETDN

Source: paper PMC2756588
